Measured values published in patent US20200010567A1 (NEURIMMUNE, published 2020).

Tests used:
[1] = molecular target: T1, BSA-coupled (GP)15 DPR protein peptide (bovine, conjugated via a bifunctional linker (SMCC) to bovine serum albumin); assay: indirect ELISA, BSA-coupled peptide coated, antibody titrated [also D00015 FIG. 3L]
T1 construct: also called BSA-(GP)15
Procedure: (§1) In brief, dipeptide repeat proteins were synthesized and purified by Schafer-N(Copenhagen, Denmark): (GA)₁₅: H-CHHHHHH(GA)₁₅-OH; (GP)₁₅: H-C(GP)₁₅-OH; (GR)₁₅: H-C(GR)₁₅-OH; (PA)₁₅: H-C(PA)₁₅-OH; (PR)₁₅: H—C(PR)₁₅-OH. DPR protein peptides were then conjugated via a bifunctional linker (SMCC) to bovine serum albumin (BSA). 96-well microplates (Corning Incorporated, Corning, USA) were coated with BSA-coupled or -uncoupled dipeptide repeat protein peptides at a concentration of either 5 μg/ml or 20 μg/ml in coating buffer (15 mM Na₂CO₃, 35 mM NaHCO₃, pH 9.42). Non-specific binding sites were blocked for 1 h at room temperature with PBS/0.1% Tween®-20 containing 2% BSA (Sigma-Aldrich, Buchs, Switzerland). Primary antibodies were diluted to the indicated concentrations and incubated 1 h at room temperature, followed by incubation with a donkey anti-human IgG Fcγ-specific antibody conjugated with HRP (Jackson ImmunoResearch Laboratories, Inc., West Grove, USA). Binding was determined by measurement of HRP activity in a standard colorimetric assay. EC₅₀ values were estimated by non-linear regression using GraphPad Prism software (San Diego, USA).

[2] = molecular target: T2, BSA-coupled (PR)15 DPR protein peptide (bovine, conjugated via a bifunctional linker (SMCC) to bovine serum albumin); assay: Western blot of BSA-coupled peptides
T2 construct: also called BSA-(PR)15
Procedure: (§2) Resolved proteins were then electroblotted (Novex® Semi-Dry Blotter, 1 h, 25V) on methanol-activated PVDF membranes (Immobilon®-P Transfer Membrane, Merck & Cie, Schaffhausen, Switzerland) by the use of Novex® NuPAGE® transfer buffer 2× (Life Technologies Europe B.V., Zug, Switzerland). Non-specific binding sites were blocked overnight at 4° C. (or alternatively for 1 h at room temperature) with PBS/0.1% Tween®-20 containing 2% BSA (Sigma-Aldrich, Buchs, Switzerland) (PBST). […] Membranes were washed three times in PBST for 15 min at RT and then incubated with a donkey anti-human IgG Fcγ-specific antibody conjugated with HRP (1:20000 or 1:10000 dilution, Jackson ImmunoResearch Laboratories, Inc., West Grove, USA) for 1 h at room temperature. Antibody binding was determined by membrane development using ECL and ImageQuant 350 detection (GE Healthcare, Otelfingen, Switzerland).
(§3) The binding specificity of the human-derived antibodies to BSA-coupled C9orf72 dipeptide repeat proteins (GA)₁₅, (GP)₁₅, (GR)₁₅, (PA)₁₅ and (PR)₁₅ was determined by Western blot analysis.

[3] = molecular target: T3, BSA-coupled (GR)15 DPR protein peptide (bovine, UniProt P02769 25-607, conjugated via a bifunctional linker (SMCC) to bovine serum albumin); assay: Western blot of BSA-coupled peptides
T3 construct: also called BSA-(GR)15
Procedure: as §2, §3

[4] = molecular target: T4, BSA-coupled (PA)15 DPR protein peptide (bovine, UniProt P02769 25-607, conjugated via a bifunctional linker (SMCC) to bovine serum albumin); assay: Western blot of BSA-coupled peptides
T4 construct: also called BSA-(PA)15
Procedure: as §2, §3

[5] = molecular target: T5, (GA)15: H-CHHHHHH(GA)15-OH; assay: indirect ELISA, uncoupled peptide coated, antibody titrated [also D00011 FIG. 2L]
T5 construct: synthetic, not coupled to BSA; also called poly-GA DPR protein peptide
T5 peptide: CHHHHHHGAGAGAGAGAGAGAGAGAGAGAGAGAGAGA
Procedure: as §1, with “(PR)₁₅: H—C(PR)₁₅-OH. 96-well microplates” for “(PR)₁₅: H—C(PR)₁₅-OH. DPR protein peptides were then conjugated via a bifunctional linker (SMCC) to bovine serum albumin (BSA). 96-well microplates”, “coated with dipeptide repeat” for “coated with BSA-coupled or -uncoupled dipeptide repeat”, “and incubated for 1 h” for “and incubated 1 h”, “Diego, USA). The binding specificity and EC₅₀ of human-derived antibodies for C9orf72 dipeptide repeat protein peptides (GA)₁₅, (GP)₁₅, (GR)₁₅, (PA)₁₅ and (PR)₁₅ were determined by indirect ELISA.” for “Diego, USA).”

(GP)15: H-C(GP)15-OH = molecular target: T6, (GP)15: H-C(GP)15-OH; assay: indirect ELISA, uncoupled peptide coated, antibody titrated [also D00015 FIG. 3L]
T6 construct: synthetic, not coupled to BSA; also called poly-GP DPR protein peptide
T6 peptide: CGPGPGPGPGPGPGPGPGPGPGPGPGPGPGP
Procedure: as §1

(PR)15: H-C(PR)15-OH = molecular target: T7, (PR)15: H-C(PR)15-OH; assay: indirect ELISA, coated peptide
T7 construct: synthetic, not coupled to BSA; also called poly-PR DPR protein peptide
T7 peptide: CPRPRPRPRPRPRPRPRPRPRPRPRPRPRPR
Procedure: as §1, with “(PR)₁₅: H—C(PR)₁₅-OH. 96-well microplates” for “(PR)₁₅: H—C(PR)₁₅-OH. DPR protein peptides were then conjugated via a bifunctional linker (SMCC) to bovine serum albumin (BSA). 96-well microplates”, “coated with dipeptide repeat” for “coated with BSA-coupled or -uncoupled dipeptide repeat”, “and incubated for 1 h” for “and incubated 1 h”, “Diego, USA). The binding specificity and EC₅₀ of human-derived antibodies for C9orf72 dipeptide repeat protein peptides (GA)₁₅, (GP)₁₅, (GR)₁₅, (PA)₁₅ and (PR)₁₅ were determined by indirect ELISA.” for “Diego, USA).”

(PA)15: H-C(PA)15-OH = molecular target: T8, (PA)15: H-C(PA)15-OH; assay: indirect ELISA, coated peptide
T8 construct: synthetic, not coupled to BSA; also called poly-PA DPR protein peptide
T8 peptide: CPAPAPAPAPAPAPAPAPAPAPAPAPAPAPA
Procedure: as §1, with “(PR)₁₅: H—C(PR)₁₅-OH. 96-well microplates” for “(PR)₁₅: H—C(PR)₁₅-OH. DPR protein peptides were then conjugated via a bifunctional linker (SMCC) to bovine serum albumin (BSA). 96-well microplates”, “coated with dipeptide repeat” for “coated with BSA-coupled or -uncoupled dipeptide repeat”, “and incubated for 1 h” for “and incubated 1 h”, “Diego, USA). The binding specificity and EC₅₀ of human-derived antibodies for C9orf72 dipeptide repeat protein peptides (GA)₁₅, (GP)₁₅, (GR)₁₅, (PA)₁₅ and (PR)₁₅ were determined by indirect ELISA.” for “Diego, USA).”

(GR)15: H-C(GR)15-OH = molecular target: T9, (GR)15: H-C(GR)15-OH; assay: indirect ELISA, coated peptide
T9 construct: synthetic, not coupled to BSA; also called poly-GR DPR protein peptide
T9 peptide: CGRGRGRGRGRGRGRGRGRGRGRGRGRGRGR
Procedure: as §1, with “(PR)₁₅: H—C(PR)₁₅-OH. 96-well microplates” for “(PR)₁₅: H—C(PR)₁₅-OH. DPR protein peptides were then conjugated via a bifunctional linker (SMCC) to bovine serum albumin (BSA). 96-well microplates”, “coated with dipeptide repeat” for “coated with BSA-coupled or -uncoupled dipeptide repeat”, “and incubated for 1 h” for “and incubated 1 h”, “Diego, USA). The binding specificity and EC₅₀ of human-derived antibodies for C9orf72 dipeptide repeat protein peptides (GA)₁₅, (GP)₁₅, (GR)₁₅, (PA)₁₅ and (PR)₁₅ were determined by indirect ELISA.” for “Diego, USA).”

T3 sequence (P02769 25-607 limits assumed): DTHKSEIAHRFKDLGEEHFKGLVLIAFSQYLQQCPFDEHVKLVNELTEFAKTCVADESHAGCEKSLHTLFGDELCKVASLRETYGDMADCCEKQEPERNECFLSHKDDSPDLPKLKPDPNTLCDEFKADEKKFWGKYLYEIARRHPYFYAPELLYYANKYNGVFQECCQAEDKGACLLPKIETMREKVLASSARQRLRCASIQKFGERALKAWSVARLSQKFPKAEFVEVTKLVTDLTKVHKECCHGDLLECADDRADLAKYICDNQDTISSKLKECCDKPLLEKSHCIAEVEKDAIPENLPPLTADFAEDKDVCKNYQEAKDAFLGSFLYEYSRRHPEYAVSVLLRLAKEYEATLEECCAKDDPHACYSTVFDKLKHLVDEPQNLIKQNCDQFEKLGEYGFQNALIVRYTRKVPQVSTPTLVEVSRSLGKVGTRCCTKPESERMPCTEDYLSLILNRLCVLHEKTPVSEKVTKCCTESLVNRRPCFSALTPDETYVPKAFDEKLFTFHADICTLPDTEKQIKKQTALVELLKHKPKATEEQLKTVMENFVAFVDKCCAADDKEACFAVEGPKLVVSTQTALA
T4 sequence (P02769 25-607 limits assumed): as above
T1 sequence (P02769 25-607 limits assumed): as above
T2 sequence (P02769 25-607 limits assumed): as above

B1: NI-308.12A3 (antibody, V domains shown)
VH: EVQLVETGGGLVQPGGSLRLSCVGSGFLFSDFEMDWVRQAPGKGLEWISYISGDGNIIYQTDSVKGRFTISRDNAKNSLFLQMDSLTVEDTAVYYCARDARENCGGDCYSTSFDFWGQGTLVTVSS
VL: DIQMTQSPDSLAVSLGERATINCKSSQSLLYTANNRNYLAWYQKKAGQPPKLLIHWASTRASGVPDRFSGSGSGTDFILTISSLQAEDVAVYFCQHYYNSPRTFGQGTKVEIK
notes: Recombinant complete human IgG1, kappa
EC50 [1]: 6.1 nM | binding result [2]: no binding | binding result [3]: no binding | binding result [4]: no binding | EC50 [5]: 19 nM | EC50 ((GP)15: H-C(GP)15-OH): 2.2 nM | binding result ((PR)15: H-C(PR)15-OH): no binding | binding result ((PA)15: H-C(PA)15-OH): no binding | binding result ((GR)15: H-C(GR)15-OH): no binding
